Assays:
[1] = substrate: Nc1ncnc2c1ncn2[C@@H]1O[C@H](COP(=O)(O)OS(=O)(=O)O)[C@@H](OP(=O)(O)O)[C@H]1O; assay: purified protein, by the assay type; conditions: other: purified recombinant retinol dehydratase, [3H]-retinol assay, n=3; 24.0 °C
[2] = substrate: CC1=C(/C=C/C(C)=C/C=C/C(C)=C/CO)C(C)(C)CCC1; assay: Retinol dehydratase assay ([3H]-retinol to [3H]-AR, HPLC radiomatic detection); kinetic studies; format: biochemical, Spodoptera frugiperda; conditions: 24.0 °C
Protocol: 20-50 μl aliquots of supernatant/column fractions were incubated with 1 μCi of [^3 H]-retinol and 20 μl of high speed supernatant from sonicated Sf-9 cells in 200 μl assay buffer (20 mM Tris.Cl pH 7.5, 150 mM NaCl, I mM MgCI2) for 15-60 minutes at 24° C. […] Samples were delipidated and [^3 H]-AR production quantified by a liquid scintillation radiomatic detector in series with HPLC gradient elution (20 mM Tris pH 7.4/methanol/chloroform) from a C-18 Reverse Phase 201TP54 column (Vydac, Separations Group, Hesperia, Calif.) as described by McClean et al., Clin. Chem., 28:693-96 (1982) and Derguini et al., Angew.
Kinetic studies were performed with native retinol dehydratase (0.1 μg/assay) and ^3 H-retinol in the presence of constant substrate carrier protein concentrations, either delipidated BSA or recombinant cellular retinol binding protein ("CRBP"). The initial rate of AR synthesis at different substrate concentrations was determined by radiomatic detection of ^3 H-AR after HPLC separation. […] Conversion of ^3 H-retinol was less than 10% of the total at the end point of each assay.
Carrier protein for retinol (delipidated bovine serum albumin or recombinant human CRBP) was added to reduce nonspecific binding and micelle formation.

B1: retinol dehydratase (Spodoptera frugiperda) (protein)
chain: MEKQQDLPFPYEFRELNPEEDKLVKANLGAFPTTYVKLGPKGYMVYRPYLKDAANIYNMPLRPTDVFVASYQRSGTTMTQELVWLIENDLNFEAAKTYMSLRYIYLDGFMIYDPEKQEEYNDILPNPENLDMERYLGLLEYFSRPGSSLLAAVPPTEKRFVKTHLPLSLMPPNMLDTVKMVYLARDPRDVAVSSFHHARLLYLLNKQSNFKDFWEMFHRGLYTLTPYFEHVKEAWAKRHDPNMLFLFYEDYLKDLPGCIARIADFLGKKLSEEQIQRLCEHLNFEKFKNNGAVNMEDYREIGILADGEHFIRKGKAGCWRDYFDEEMTKQAEKWIKDNLKDTDLRYPNMEL
B1 gave a Km [1] of 0.26 ± 0.05 µM, a Km ([2]; other: BSA carrier, second condition as printed) of 0.05 µM and a Km ([2]; other: n=5, free retinol from carrier protein affinities) of 0.001 µM. For the same protein, the Km ([2]; other: native retinol dehydratase 0.1 μg/assay, 3H-retinol, carrier BSA or CRBP, free retinol, representative experiment, non-linear regression) was 0.00066 µM, the Km ([2]; other: with 2×10^-7 M CRBP-1) was 0.025 µM and the Km ([2]; other: with 10^-3 M BSA) was 0.4 µM.

Reference: US5928931A, “Isolation, purification and cloning of retinol dehydratase” (Cornell Research Foundation, Inc., priority 1997, dated 1999)
